This is an account of results in article PMC8836101 (2022).

Experiment [1] has as its target H3 22-41 (Homo sapiens, unmodified; biotin, attachment site not given). Description: FACS; yeast surface display titration. Background: In flow cytometry, cells or beads pass a laser one at a time.
Experiment [2] has as its target H3K18me2 (Homo sapiens, dimethyl-Lys18 (mature numbering); biotin, attachment site not given; limits assumed from the H3 1-21 control). Description: FACS; yeast surface display titration.

B1: bromo-adjacent homology domain of ASH1L (domain or fragment)
chain: NFHSFNVEKQQLCKCGFEKCRGIIGGKSQRVNGLTSSKNSQPMATHKKSGRSKEKRKSKHKLKKRRGHLSEEPSENINTPTRLTPQLQMKPMSNRERNFVLKHHVFLVRNWEKIRQKQEEVKHTSDNIHSASLYTRWNGICRDDGNIKSDVFMTQFSALQTARSVRTRRLAAAEENIEVARAARLAQIFKEICDGIISYKDSSRQALAAPLLNLPPKKKNADYYEKISDPLDLITIEKQILTGYYKTVEAFDADMLKVFRNAEKYYGRKSPVGRDVCRLRKAYYNARHEASAQIDEIVGETASEADSSETSVSEKENGHEKDDDVIRCICGLYKDEGLMIQCDKCMVWQHCDCMGVNSDVEHYLCEQCDPRPVDREVPMIPRPHYAQPGCVYFICLLRDDLLLRQGDCVYLMRDSRRTPDGHPVRQSYRLLSHINRDKLDIFRIEKLWKNEKEERFAFGHHYFRPHETHHSPSRRFYHNELFRVPLYEIIPLEAVVGTCCVLDLYTYCKGRPKGVKEQDVYICDYRLDKSAHLFYKIH
B1: the Kd in experiment [1] came out at 6.5 µM.

B2: tandem Tudor domains of UHRF1 (domain or fragment)
chain: WDETELGLYKVNEYVDARDTNMGAWFEAQVVRVTRKAPSRDEPCSSTSRPALEEDVIYHVKYDDYPENGVVQMNSRDVRARARTIIKWQDLEVGQVVMLNYNPDNPKERGFWYDAEISRKRETRTARELYANVVLGDDSLNDCRIIFVDEVFKIERPGE
In the case of B2, binding in experiment [2] was characterised by a dissociation constant (Kd) of 5 µM.

One may read the Kd as the concentration at which binding is half-saturated.
